{
  "source": "patent US20100022453A1",
  "about": "(UNIVERSITY OF ROCHESTER, published 2010)",
  "binders": {"B1": {"name": "rat NgR1 (Nogo-66 receptor), full-length, expressed on cells (receptor)", "chain": "CPGACVCYNEPKVTTSCPQQGLQAVPTGIPASSQRIFLHGNRISYVPAASFQSCRNLTILWLHSNALAGIDAAAFTGLTLLEQLDLSDNAQLRVVDPTTFRGLGHLHTLHLDRCGLQELGPGLFRGLAALQYLYLQDNNLQALPDNTFRDLGNLTHLFLHGNRIPSVPEHAFRGLHSLDRLLLHQNHVARVHPHAFRDLGRLMTLYLFANNLSMLPAEVLVPLRSLQYLRLNDNPWVCDCRARPLWAWLQKFRGSSSEVPCNLPQRLAGRDLKRLAASDLEGCAVASGPFRPFQTNQLTDEELLGLPKCCQPDAADKASVLEPGRPASAGNALKGRVPPGDTPPGNGSGPRHINDSPFGTLPGSAEPPLTALRPGGSEPPGLPTTGPRRRPGCSRKNRTRSHCRLGQAGSGSSGTGDAEGS", "notes": "also called Nogo receptor NgR1; NgR1 in COS cells"}, "B2": {"name": "rat NgR2, full-length, expressed on COS-7 cells (receptor)", "chain": "CPMLCTCYSSPPTVSCQANNFSSVPLSLPPSTQRLFLQNNLIRSLRPGTFGPNLLTLWLFSNNLSTIYPGTFRHLQALEELDLGDNRHLRSLEPDTFQGLERLQSLHLYRCQLSSLPGNIFRGLVSLQYLYLQENSLLHLQDDLFADLANLSHLFLHGNRLRLLTEHVFRGLGSLDRLLLHGNRLQGVHRAAFHGLSRLTILYLFNNSLASLPGEALADLPALEFLRLNANPWACDCRARPLWAWFQRARVSSSDVTCATPPERQGRDLRTLRDTDFQACPPPTPTRPGSRARGNSSSNHLYGVAEAGAPPADPSTLYRDLPAEDSRGRQGGDAPTEDDYWGGYGGEDQRGEQTCPGAAC", "notes": "also called NgR2 in COS cells"}},
  "key": {"[1]": {"target": "B2", "assay": "AP-ligand binding to NgR2 on COS cells", "method": "(§1) Techniques for ligand binding to NgR1 on COS cells is described in detail in Venkatesh et al. (2005) Journal of Neuroscience 25:808-22, which is incorporated herein by reference in its entirety at least for the methods taught therein. Briefly, receptor constructs were expressed transiently in COS-7 cells in 24-well plates coated with poly-D-lysine (PDL; 50 μg/ml), using Lipofectamine 2000. At 24 h after transfection the cells were rinsed and incubated for 75 min at ambient temperature with alkaline phosphatase tagged FGF1, FGF2, FGF4, FGF8, FGF9, and FGF21. To monitor bound ligand, plates were developed with NBT/BCIP substrate; the color reaction was stopped by two rinses in PBS. For quantification of ligand binding the cells were processed as described above; after ligand incubation the cells were rinsed in HBHA and lysed in 20 mM Tris, pH 8.0, 0.1% Triton X-100. The lysates were incubated at 65° C. for 60 min and spun at 10,000×g for 5 min. The relative AP activity in supernatants was normalized to cell surface receptor expression, using anti-myc (1:1000), anti-NgR1 (1:1000), anti-NgR2 (1:1000), or anti-NgR3 (1:200) antibodies, as described previously (Giger et al., Neuron 21:1079-92, 1998). Scatchard plot analysis was performed analogous to a previous study (Kolodkin et al., Cell 90:753-62, 1997)."}, "[2]": {"target": "B1", "assay": "AP-ligand binding to NgR1 on COS cells", "method": "as §1"}, "[3]": {"target": "T1, AP-sNgR1^CT+stalk (Phe278-Glu445) (human; rat)", "T1 construct": "Expressed in HEK293T cells and used as conditioned supernatant", "T1 sequence (P05187 other isoform, or with tags, fused parts or gaps)": "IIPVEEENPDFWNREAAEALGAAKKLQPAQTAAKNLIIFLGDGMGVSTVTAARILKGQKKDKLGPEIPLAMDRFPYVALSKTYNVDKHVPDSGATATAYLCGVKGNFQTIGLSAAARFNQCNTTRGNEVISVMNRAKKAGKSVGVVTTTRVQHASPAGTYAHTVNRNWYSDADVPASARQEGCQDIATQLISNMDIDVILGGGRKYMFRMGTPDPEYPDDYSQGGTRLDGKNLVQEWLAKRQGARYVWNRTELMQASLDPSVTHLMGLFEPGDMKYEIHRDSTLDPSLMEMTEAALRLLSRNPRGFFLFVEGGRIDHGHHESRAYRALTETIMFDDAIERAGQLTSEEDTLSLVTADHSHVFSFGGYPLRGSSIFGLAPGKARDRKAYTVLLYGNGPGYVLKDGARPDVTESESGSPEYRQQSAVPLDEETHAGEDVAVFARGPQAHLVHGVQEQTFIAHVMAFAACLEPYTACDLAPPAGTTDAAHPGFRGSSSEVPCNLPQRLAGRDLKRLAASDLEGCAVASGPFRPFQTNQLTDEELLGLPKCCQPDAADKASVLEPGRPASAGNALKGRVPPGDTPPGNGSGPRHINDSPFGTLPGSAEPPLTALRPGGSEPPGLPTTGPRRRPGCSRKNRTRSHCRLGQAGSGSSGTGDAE", "assay": "AP-fusion protein binding to transfected COS-7 cells; (-) = no binding above background"}, "AP-FGF9 (mouse) [4]": {"target": "T2, AP-FGF9 (mouse) (human; mouse, UniProt P54130 4-208)", "assay": "AP-ligand binding to NgR1 on COS-7 cells", "method": "as §1"}, "[5]": {"target": "T3, NgR1-Fc (mouse NogoR/Fc, R&D Systems) (mouse, UniProt Q99PI8 27-447)", "T3 construct": "also called soluble NgR1-Fc", "T3 sequence (looked up)": "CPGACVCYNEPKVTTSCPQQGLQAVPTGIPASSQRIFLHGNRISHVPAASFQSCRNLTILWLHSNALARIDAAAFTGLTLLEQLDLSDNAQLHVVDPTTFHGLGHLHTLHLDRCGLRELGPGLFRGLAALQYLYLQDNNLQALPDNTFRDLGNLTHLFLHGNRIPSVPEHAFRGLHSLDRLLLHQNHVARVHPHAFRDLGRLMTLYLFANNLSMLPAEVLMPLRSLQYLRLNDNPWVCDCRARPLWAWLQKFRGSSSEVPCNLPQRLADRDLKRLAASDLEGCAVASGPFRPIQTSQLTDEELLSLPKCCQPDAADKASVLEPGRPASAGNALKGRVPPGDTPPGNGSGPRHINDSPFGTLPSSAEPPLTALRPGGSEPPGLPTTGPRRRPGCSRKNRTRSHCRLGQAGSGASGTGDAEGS", "assay": "affinity precipitation with NgR1-Fc on Protein A/G beads, anti-AP Western blot", "method": "NgR1-Fc (0.5 μg, R&D Systems) and AP-tagged ligands (1.5 nM final conc.) were mixed in DMEM containing 0.1% BSA and protease inhibitor cocktail and were incubated at 4° C. for 2 h. AP-ligands bound to NgR1-Fc were precipitated with Protein A/G agarose beads after 2 h at 4° C. Samples were rinsed extensively in washing buffer (20 mM Tris-HCl, pH 7.5, 150 mM NaCl, 1% NP40, 5 mM EDTA) and analyzed by Western blotting using an anti-AP antibody. For cross-linking experiments, NgR1-Fc, FGFR1D(IIIb)/Fc, TROY-Fc, or ephrinB3-Fc (R&D Systems) (each at 13 nM), were incubated with 40 nM ¹²⁵I-FGF2 (specific activity: ˜50 μCi/μg, MP Biochem.) with or without the indicated concentrations of cold FGF2 or insulin for 2 h at room temperature in PBS. Cross-linking was initiated by adding BS³ (bis[sulfosuccinimidyl]suberate, Pierce, Rockford, Ill.) to a final concentration of 2 mM and incubating for 30 min at room temperature. The reaction was stopped by adding 2 μl of 1 M Tris-HCl (pH 7.4) and protein complexes were analyzed by SDS-PAGE. Gels were subsequently fixed, dried, and subjected to autoradiography."}, "[6]": {"target": "B1", "assay": "AP-tagged ligand binding to NgR1 on COS cells", "method": "as §1"}, "[7]": {"target": "B1", "assay": "Scatchard plot analysis of AP-ligand binding to NgR1 on COS-7 cells", "method": "as §1, with “The relative AP activity in supernatants was normalized to cell surface receptor expression, using anti-myc (1:1000), anti-NgR1 (1:1000), anti-NgR2 (1:1000), or anti-NgR3 (1:200) antibodies, as described previously (Giger et al., Neuron 21:1079-92, 1998). Scatchard plot analysis was performed analogous to a previous study (Kolodkin et al., Cell 90:753-62, 1997).” left out\nTo address whether NgR1 interacts directly with FGF2, affinity precipitation experiments were performed. […] The complexes of ¹²⁵I-FGF2:NgR1-Fc and ¹²⁵I-FGF2:FGFR1-Fc run at apparent molecular weights of 220- and 250-kDa and higher molecular weight complexes containing ¹²⁵I-FGF2 are detected as well (FIG. 3C)."}, "[8]": {"target": "B2", "assay": "AP-ligand binding to NgR2 on COS-7 cells", "method": "as §1"}, "[9]": {"target": "B1", "assay": "AP-ligand binding to NgR1 on COS-7 cells", "method": "as §1"}, "AP-FGF9 (mouse) [10]": {"target": "T2, AP-FGF9 (mouse)", "assay": "AP-ligand binding to NgR2 on COS-7 cells", "method": "as §1"}},
  "data": [
    {"binder": "AP-FGF4 (mouse) (ligand, UniProt P11403 30-202, looked up, not shown: human placental alkaline phosphatase (AP) tag) APNGTRHAELGHGWDGLVARSLARLPVAAQPPQAAVRSGAGDYLLGLKRLRRLYCNVGIGFHLQVLPDGRIGGVHADTRDSLLELSPVQRGVVSIFGVASRFFVAMSSRGKLFGVPFFTDECKFKEILLPNNYNAYESYAYPGMFMALSKNGRTKKGNRVSPTMKVTHFLPRL", "values": [
      {"measurement": "binding result", "setting": "[1]", "result": "no binding"},
      {"measurement": "binding result", "setting": "[2]", "result": "binds"}
    ]},
    {"binder": "B1", "values": [
      {"measurement": "binding result", "setting": "[3]", "result": "no binding"},
      {"measurement": "binding result", "setting": "AP-FGF9 (mouse) [4]", "result": "no binding"}
    ]},
    {"binder": "Nogo66-Npn1 (human Nogo66 fused to the transmembrane and cytoplasmic portion of rat neuropilin-1) on COS-7 cells (other, human;rat, UniProt Q9NQC3 1055-1120, looked up, domain: Nogo66;domain: transmembrane and cytoplasmic portion; Chimeric cell-surface form of Nogo66; also called Nogo66-Npn1 in COS cells) RIYKGVIQAIQKSDEGHPFRAYLESEVAISEELVQKYSNSALGHVNCTIKELRRLFLVDDLVDSLKILITIIAMSALGVLLGAVCGVVLYCACWHNGMSERNLSALENYNFELVDGVKLKKDKLNPQSNYSEA", "values": [
      {"measurement": "binding result", "setting": "[3]", "result": "no binding"}
    ]},
    {"binder": "AP-FGF2 (mouse), alkaline phosphatase tagged FGF2 (ligand, UniProt P15655 10-154, looked up, also called bFGF; basic FGF; not shown: human placental alkaline phosphatase (AP) tag) PALPEDGGAAFPPGHFKDPKRLYCKNGGFFLRIHPDGRVDGVREKSDPHVKLQLQAEERGVVSIKGVCANRYLAMKEDGRLLASKCVTEECFFFERLESNNYNTYRSRKYSSWYVALKRTGQYKLGSKTGPGQKAILFLPMSAKS", "values": [
      {"measurement": "binding result", "setting": "[5]", "result": "binds"},
      {"measurement": "Kd", "setting": "[6]", "result": "~10", "unit": "nM"},
      {"measurement": "Kd", "setting": "[7]", "result": 16.9, "unit": "nM"},
      {"measurement": "binding result", "setting": "[8]", "result": "no binding"}
    ]},
    {"binder": "AP-FGF8 (mouse) (ligand, UniProt P37237-2 23-215, looked up, also called FGF8b; not shown: human placental alkaline phosphatase (AP) tag) QVTVQSSPNFTQHVREQSLVTDQLSRRLIRTYQLYSRTSGKHVQVLANKRINAMAEDGDPFAKLIVETDTFGSRVRVRGAETGLYICMNKKGKLIAKSNGKGKDCVFTEIVLENNYTALQNAKYEGWYMAFTRKGRPRKGSKTRQHQREVHFMKRLPRGHHTTEQSLRFEFLNYPPFTRSLRGSQRTWAPEPR", "values": [
      {"measurement": "binding result", "setting": "[1]", "result": "no binding"},
      {"measurement": "binding result", "setting": "[9]", "result": "no binding"}
    ]},
    {"binder": "B2", "values": [
      {"measurement": "binding result", "setting": "[3]", "result": "no binding"},
      {"measurement": "binding result", "setting": "AP-FGF9 (mouse) [10]", "result": "no binding"}
    ]},
    {"binder": "rat NgR3 expressed on COS-7 cells (receptor, UniProt Q80WD0 25-424, looked up, whole, on cells; also called NgR3 in COS cells) CPRDCVCYPSPMTVSCQAHNFAAIPEGIPEDSERIFLQNNHITFLQQGHFSPAMVTLWIYSNNITFIAPNTFEGFVHLEELDLGDNRQLRTLAPETFQGLVKLHALYLYKCGLSSLPAGIFGGLHSLQYLYLQDNHIEYLQDDIFVDLVNLSHLFLHGNKLWSLGQGIFRGLVNLDRLLLHENQLQWVHHKAFHDLHRLTTLFLFNNSLTELQGDCLAPLVALEFLRLNGNAWDCGCRARSLWEWLRRFRGSSSVVPCATPELRQGQDLKSLRVEDFRNCTGPASPHQIKSHTLSTSDRAARKEHHPSHGASRDKGHPHGHLPGSRSGSKKPGKNCTSHRNRNQISKGSAGKELPELQDYAPDYQHKFSFDIMPTARPKRKGKCARRTPIRAPSGVQQAS", "values": [
      {"measurement": "binding result", "setting": "[3]", "result": "no binding"}
    ]},
    {"binder": "AP-FGF21 (mouse) (ligand, UniProt Q9JJN1 29-210, looked up, not shown: human placental alkaline phosphatase (AP) tag) AYPIPDSSPLLQFGGQVRQRYLYTDDDQDTEAHLEIREDGTVVGAAHRSPESLLELKALKPGVIQILGVKASRFLCQQPDGALYGSPHFDPEACSFRELLLEDGYNVYQSEAHGLPLRLPQKDSPNQDATSWGPVRFLPMPGLLHEPQDQAGFLPPEPPDVGSSDPLSMVEPLQGRSPSYAS", "values": [
      {"measurement": "binding result", "setting": "[1]", "result": "no binding"},
      {"measurement": "binding result", "setting": "[9]", "result": "no binding"}
    ]}
  ]
}
